# In patent US20140087995A1 (published 2014):
# Numbered stars: 1 amine (or outer) side, 2 acyl side, 3 side chain; on linkers, the order of the positions; unused ones are H or OH. Bridge positions count the residues as written; N and C are the ends. Side chains are listed from the residue outwards. Ends that are not written are not given here. * marks the point of attachment. C20 diacid = O=C(O)CCCCCCCCCCCCCCCCCCC(=O)*; γGlu = O=C(O)[C@H](CCC(=O)[*:2])N[*:1]; AEEA = NCCOCCOCC(=O)O
# T1: human calcitonin receptor (human, UniProt P30988 25-474)
# T1 sequence (looked up): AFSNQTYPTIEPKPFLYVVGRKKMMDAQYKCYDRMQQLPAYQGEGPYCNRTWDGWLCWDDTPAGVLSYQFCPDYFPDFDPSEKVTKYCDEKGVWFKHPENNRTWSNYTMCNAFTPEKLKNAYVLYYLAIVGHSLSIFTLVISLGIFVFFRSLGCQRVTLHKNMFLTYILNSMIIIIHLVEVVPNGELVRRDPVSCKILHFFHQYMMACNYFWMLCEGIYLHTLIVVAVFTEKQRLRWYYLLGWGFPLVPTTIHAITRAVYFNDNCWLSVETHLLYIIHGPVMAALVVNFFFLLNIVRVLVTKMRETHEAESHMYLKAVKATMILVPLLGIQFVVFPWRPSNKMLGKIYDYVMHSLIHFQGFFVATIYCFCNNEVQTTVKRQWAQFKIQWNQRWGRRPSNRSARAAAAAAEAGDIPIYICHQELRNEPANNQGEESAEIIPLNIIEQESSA
# T2: human amylin receptor (amylin 3(a) receptor: human calcitonin receptor plus RAMP-3) (human, UniProt P30988 25-474; O60896 24-148, limits assumed)
# T2 sequence (looked up) 1: T1 sequence (looked up)
# T2 sequence (looked up) 2: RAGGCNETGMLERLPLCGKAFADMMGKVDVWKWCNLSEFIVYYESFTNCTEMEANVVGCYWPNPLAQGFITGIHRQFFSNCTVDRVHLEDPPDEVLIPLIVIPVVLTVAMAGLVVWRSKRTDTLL
# B1: N^α1-[(4S)-4-carboxy-4-(19-carboxynonadecanoylamino)butanoyl]-[Glu14,Arg17,Pro21,Pro25,Pro28,Pro29]-h-amylin (peptide)
# peptide: {C20 diacid-γGlu}-KCNTATCATQRLAEFLRHSSPNFGPILPPTNVGSNTY-NH2
# modifications: disulfide 2-7
# SMILES: CC[C@H](C)[C@H](NC(=O)[C@@H]1CCCN1C(=O)CNC(=O)[C@H](Cc1ccccc1)NC(=O)[C@H](CC(N)=O)NC(=O)[C@@H]1CCCN1C(=O)[C@H](CO)NC(=O)[C@H](CO)NC(=O)[C@H](Cc1c[nH]cn1)NC(=O)[C@H](CCCNC(=N)N)NC(=O)[C@H](CC(C)C)NC(=O)[C@H](Cc1ccccc1)NC(=O)[C@H](CCC(=O)O)NC(=O)[C@H](C)NC(=O)[C@H](CC(C)C)NC(=O)[C@H](CCCNC(=N)N)NC(=O)[C@H](CCC(N)=O)NC(=O)[C@@H](NC(=O)[C@H](C)NC(=O)[C@@H]1CSSC[C@H](NC(=O)[C@H](CCCCN)NC(=O)CC[C@H](NC(=O)CCCCCCCCCCCCCCCCCCC(=O)O)C(=O)O)C(=O)N[C@@H](CC(N)=O)C(=O)N[C@@H]([C@@H](C)O)C(=O)N[C@@H](C)C(=O)N[C@@H]([C@@H](C)O)C(=O)N1)[C@@H](C)O)C(=O)N[C@@H](CC(C)C)C(=O)N1CCC[C@H]1C(=O)N1CCC[C@H]1C(=O)N[C@H](C(=O)N[C@@H](CC(N)=O)C(=O)N[C@H](C(=O)NCC(=O)N[C@@H](CO)C(=O)N[C@@H](CC(N)=O)C(=O)N[C@H](C(=O)N[C@@H](Cc1ccc(O)cc1)C(N)=O)[C@@H](C)O)C(C)C)[C@@H](C)O
# notes: Synthetic acylated analogue of human amylin; also called compound 6
# B2: N^ε1-[2-[2-[2-[[(4S)-4-carboxy-4-(19-carboxynonadecanoylamino)butanoyl]amino]ethoxy]ethoxy]acetyl]-[Arg17,Pro21,Pro27]-h-amylin (peptide)
# peptide: K([AEEA-γGlu-C20 diacid])CNTATCATQRLANFLRHSSPNFGAIPSSTNVGSNTY-NH2
# modifications: disulfide 2-7; N-terminus assumed
# SMILES: CC[C@H](C)[C@H](NC(=O)[C@H](C)NC(=O)CNC(=O)[C@H](Cc1ccccc1)NC(=O)[C@H](CC(N)=O)NC(=O)[C@@H]1CCCN1C(=O)[C@H](CO)NC(=O)[C@H](CO)NC(=O)[C@H](Cc1c[nH]cn1)NC(=O)[C@H](CCCNC(=N)N)NC(=O)[C@H](CC(C)C)NC(=O)[C@H](Cc1ccccc1)NC(=O)[C@H](CC(N)=O)NC(=O)[C@H](C)NC(=O)[C@H](CC(C)C)NC(=O)[C@H](CCCNC(=N)N)NC(=O)[C@H](CCC(N)=O)NC(=O)[C@@H](NC(=O)[C@H](C)NC(=O)[C@@H]1CSSC[C@H](NC(=O)[C@@H](N)CCCCNC(=O)COCCOCCNC(=O)CC[C@H](NC(=O)CCCCCCCCCCCCCCCCCCC(=O)O)C(=O)O)C(=O)N[C@@H](CC(N)=O)C(=O)N[C@@H]([C@@H](C)O)C(=O)N[C@@H](C)C(=O)N[C@@H]([C@@H](C)O)C(=O)N1)[C@@H](C)O)C(=O)N1CCC[C@H]1C(=O)N[C@@H](CO)C(=O)N[C@@H](CO)C(=O)N[C@H](C(=O)N[C@@H](CC(N)=O)C(=O)N[C@H](C(=O)NCC(=O)N[C@@H](CO)C(=O)N[C@@H](CC(N)=O)C(=O)N[C@H](C(=O)N[C@@H](Cc1ccc(O)cc1)C(N)=O)[C@@H](C)O)C(C)C)[C@@H](C)O
# notes: Synthetic acylated analogue of human amylin; also called compound 41
# B3: N^ε-[(4S)-4-carboxy-4-(19-carboxynonadecanoylamino)butanoyl]Lys[Arg1,Arg17,Pro21,Pro27,His35]-h-amylin (peptide)
# peptide: K([γGlu-C20 diacid])RCNTATCATQRLANFLRHSSPNFGAIPSSTNVGSHTY-NH2
# modifications: disulfide 3-8; N-terminus assumed
# SMILES: CC[C@H](C)[C@H](NC(=O)[C@H](C)NC(=O)CNC(=O)[C@H](Cc1ccccc1)NC(=O)[C@H](CC(N)=O)NC(=O)[C@@H]1CCCN1C(=O)[C@H](CO)NC(=O)[C@H](CO)NC(=O)[C@H](Cc1c[nH]cn1)NC(=O)[C@H](CCCNC(=N)N)NC(=O)[C@H](CC(C)C)NC(=O)[C@H](Cc1ccccc1)NC(=O)[C@H](CC(N)=O)NC(=O)[C@H](C)NC(=O)[C@H](CC(C)C)NC(=O)[C@H](CCCNC(=N)N)NC(=O)[C@H](CCC(N)=O)NC(=O)[C@@H](NC(=O)[C@H](C)NC(=O)[C@@H]1CSSC[C@H](NC(=O)[C@H](CCCNC(=N)N)NC(=O)[C@@H](N)CCCCNC(=O)CC[C@H](NC(=O)CCCCCCCCCCCCCCCCCCC(=O)O)C(=O)O)C(=O)N[C@@H](CC(N)=O)C(=O)N[C@@H]([C@@H](C)O)C(=O)N[C@@H](C)C(=O)N[C@@H]([C@@H](C)O)C(=O)N1)[C@@H](C)O)C(=O)N1CCC[C@H]1C(=O)N[C@@H](CO)C(=O)N[C@@H](CO)C(=O)N[C@H](C(=O)N[C@@H](CC(N)=O)C(=O)N[C@H](C(=O)NCC(=O)N[C@@H](CO)C(=O)N[C@@H](Cc1c[nH]cn1)C(=O)N[C@H](C(=O)N[C@@H](Cc1ccc(O)cc1)C(N)=O)[C@@H](C)O)C(C)C)[C@@H](C)O
# notes: Synthetic acylated analogue of human amylin, extended by Lys at the N-terminus; also called compound 44
# B4: N^-1-[(4S)-4-carboxy-4-(19-carboxynonadecanoylamino)butanoyl]-Gly[Arg1,Arg17,Pro21,Pro27,His35]-h-amylin (peptide)
# peptide: {C20 diacid-γGlu}-GRCNTATCATQRLANFLRHSSPNFGAIPSSTNVGSHTY-NH2
# modifications: disulfide 3-8
# SMILES: CC[C@H](C)[C@H](NC(=O)[C@H](C)NC(=O)CNC(=O)[C@H](Cc1ccccc1)NC(=O)[C@H](CC(N)=O)NC(=O)[C@@H]1CCCN1C(=O)[C@H](CO)NC(=O)[C@H](CO)NC(=O)[C@H](Cc1c[nH]cn1)NC(=O)[C@H](CCCNC(=N)N)NC(=O)[C@H](CC(C)C)NC(=O)[C@H](Cc1ccccc1)NC(=O)[C@H](CC(N)=O)NC(=O)[C@H](C)NC(=O)[C@H](CC(C)C)NC(=O)[C@H](CCCNC(=N)N)NC(=O)[C@H](CCC(N)=O)NC(=O)[C@@H](NC(=O)[C@H](C)NC(=O)[C@@H]1CSSC[C@H](NC(=O)[C@H](CCCNC(=N)N)NC(=O)CNC(=O)CC[C@H](NC(=O)CCCCCCCCCCCCCCCCCCC(=O)O)C(=O)O)C(=O)N[C@@H](CC(N)=O)C(=O)N[C@@H]([C@@H](C)O)C(=O)N[C@@H](C)C(=O)N[C@@H]([C@@H](C)O)C(=O)N1)[C@@H](C)O)C(=O)N1CCC[C@H]1C(=O)N[C@@H](CO)C(=O)N[C@@H](CO)C(=O)N[C@H](C(=O)N[C@@H](CC(N)=O)C(=O)N[C@H](C(=O)NCC(=O)N[C@@H](CO)C(=O)N[C@@H](Cc1c[nH]cn1)C(=O)N[C@H](C(=O)N[C@@H](Cc1ccc(O)cc1)C(N)=O)[C@@H](C)O)C(C)C)[C@@H](C)O
# notes: Synthetic acylated analogue of human amylin, extended by Gly at the N-terminus; also called compound 47
# B5: N^-1-[(4S)-4-carboxy-4-(19-carboxynonadecanoylamino)butanoyl]-Gly[Arg1,Arg17,Pro21,Pro27]-h-amylin (peptide)
# peptide: {C20 diacid-γGlu}-GRCNTATCATQRLANFLRHSSPNFGAIPSSTNVGSNTY-NH2
# modifications: disulfide 3-8
# SMILES: CC[C@H](C)[C@H](NC(=O)[C@H](C)NC(=O)CNC(=O)[C@H](Cc1ccccc1)NC(=O)[C@H](CC(N)=O)NC(=O)[C@@H]1CCCN1C(=O)[C@H](CO)NC(=O)[C@H](CO)NC(=O)[C@H](Cc1c[nH]cn1)NC(=O)[C@H](CCCNC(=N)N)NC(=O)[C@H](CC(C)C)NC(=O)[C@H](Cc1ccccc1)NC(=O)[C@H](CC(N)=O)NC(=O)[C@H](C)NC(=O)[C@H](CC(C)C)NC(=O)[C@H](CCCNC(=N)N)NC(=O)[C@H](CCC(N)=O)NC(=O)[C@@H](NC(=O)[C@H](C)NC(=O)[C@@H]1CSSC[C@H](NC(=O)[C@H](CCCNC(=N)N)NC(=O)CNC(=O)CC[C@H](NC(=O)CCCCCCCCCCCCCCCCCCC(=O)O)C(=O)O)C(=O)N[C@@H](CC(N)=O)C(=O)N[C@@H]([C@@H](C)O)C(=O)N[C@@H](C)C(=O)N[C@@H]([C@@H](C)O)C(=O)N1)[C@@H](C)O)C(=O)N1CCC[C@H]1C(=O)N[C@@H](CO)C(=O)N[C@@H](CO)C(=O)N[C@H](C(=O)N[C@@H](CC(N)=O)C(=O)N[C@H](C(=O)NCC(=O)N[C@@H](CO)C(=O)N[C@@H](CC(N)=O)C(=O)N[C@H](C(=O)N[C@@H](Cc1ccc(O)cc1)C(N)=O)[C@@H](C)O)C(C)C)[C@@H](C)O
# notes: Synthetic acylated analogue of human amylin, extended by Gly at the N-terminus; also called compound 46
# B6: N^ε1-[2-[2-[2-(19-carboxynonadecanoylamino)ethoxy]ethoxy]acetyl]-[Arg17,Pro21,Pro27]-h-amylin (peptide)
# peptide: K([AEEA-C20 diacid])CNTATCATQRLANFLRHSSPNFGAIPSSTNVGSNTY-NH2
# modifications: disulfide 2-7; N-terminus assumed
# SMILES: CC[C@H](C)[C@H](NC(=O)[C@H](C)NC(=O)CNC(=O)[C@H](Cc1ccccc1)NC(=O)[C@H](CC(N)=O)NC(=O)[C@@H]1CCCN1C(=O)[C@H](CO)NC(=O)[C@H](CO)NC(=O)[C@H](Cc1c[nH]cn1)NC(=O)[C@H](CCCNC(=N)N)NC(=O)[C@H](CC(C)C)NC(=O)[C@H](Cc1ccccc1)NC(=O)[C@H](CC(N)=O)NC(=O)[C@H](C)NC(=O)[C@H](CC(C)C)NC(=O)[C@H](CCCNC(=N)N)NC(=O)[C@H](CCC(N)=O)NC(=O)[C@@H](NC(=O)[C@H](C)NC(=O)[C@@H]1CSSC[C@H](NC(=O)[C@@H](N)CCCCNC(=O)COCCOCCNC(=O)CCCCCCCCCCCCCCCCCCC(=O)O)C(=O)N[C@@H](CC(N)=O)C(=O)N[C@@H]([C@@H](C)O)C(=O)N[C@@H](C)C(=O)N[C@@H]([C@@H](C)O)C(=O)N1)[C@@H](C)O)C(=O)N1CCC[C@H]1C(=O)N[C@@H](CO)C(=O)N[C@@H](CO)C(=O)N[C@H](C(=O)N[C@@H](CC(N)=O)C(=O)N[C@H](C(=O)NCC(=O)N[C@@H](CO)C(=O)N[C@@H](CC(N)=O)C(=O)N[C@H](C(=O)N[C@@H](Cc1ccc(O)cc1)C(N)=O)[C@@H](C)O)C(C)C)[C@@H](C)O
# notes: Synthetic acylated analogue of human amylin; also called compound 43
# Target: T1, human calcitonin receptor
# Experiment: cell-based or functional assay
row,hCTR funct. EC50 [nM],Binder
1,0.729,B1
2,4.35,B2
3,4.75,B3
4,1.32,B4
5,0.899,B5
6,0.92,B6

# Target: T2, human amylin receptor (amylin 3(a) …)
# Experiment: cell-based or functional assay
Ratio hCT/hAmylin funct. [ratio],hAmylin-R funct. EC50 [nM],Binder
5.7,0.128,B1
16.7,0.26,B2
24,0.198,B3
6,0.222,B4
10.2,0.088,B5
6.5,0.141,B6
